From the DeepSol protein solubility set

experiment: soluble on expression in E. coli; label from the status in PepcDB or PDB records

Sequence | soluble on expression in E. coli
MSDPYMPLTSVRSGAGFEAAKGVHGLTVQIANVYFIQLPSEPHSFVLIDAGMPQSAGVIVNEAKQRFGEGFQLKAIILTHGHFDHIGAIEEILEHWDVPVYIHSREMPYVTGKEDYPPARPDSKSGLVAKLSPLFPRHSIDISSHVQALPEDGSVPFLDEWMWIATPGHTPGHISLFRDDGRVLVAGDAVITVEQEKMADVLIQKQELHGPPAYFTPDTETAAESILKLAGLEPEALLTGHGIPMTGKNFRSDLTELANRLSSILEHHHHHH | soluble
VGKEKAEVELLQVDADLQAEIVGKYNADLQKAVQIEEKKAREIATEAVKEHVTAEYEERYAEHEEHDRIMRDVAEILEQMEHAEVRRLITEDKVRPDGRRVDEIRP | not soluble
MGFHPRVPEGEVARRIAAVGAAIDRVIGERKRKISGQMIGRAVIRERRRCVWLERSEVPLDVIREGEAFVVRFANPDGSLGQPHQLLSSWMPGDPVLEHHHHHH | not soluble
MAQVLSLENVTLAVEKENSKQAIVKHVSFFINEGEIVALVGESGSGKSVTAQSIIGLNQESIQFDDGNISFESKDLTNLQESEWNQIRGKDISFIFQDPLSSLNPTMKVGRQITEVILQHEKKSKKEAKEIAINLLNDLGIHEAEKRFEQYPHQLSGGMRQRICLAIAFACHPKLVIADEPTTALDVTIQKQIMGLLKERKEKQNTSILLITHDLALVREVADRVVVMYGGRIVEKGTIQEVIGSPKHPYTKSLLQAIPNMDDAEKVLRAIEGTTPSIETLNSFGCPFVNRCPVAIQECIHRFPERTTYSAEHSSHCWQHVLEHDRAKSKEKVNVS | not soluble
RSRLVQFQKNTDEPMGITLKMNELNHCIVARIMHGGMIHRQGTLHVGDEIREINGISVANQTVEQLQKMLREMRGSITFKIVPSYREF | soluble
WSAEDKHKEGVNSHLWIVNRAIDIMSRNTTLVKQDRVAQLNEWRTELENGIYAANYENPYYDNSTFASHFYDPDNGKTYIPFAKQAKETGAKYFKLAGESYKNKDMKQAFFYLGLSLHYLGDVNQPMHAANFTNLSYPQGFHSKYENFVDTIKDNYKVTDGNGYWNWKGTNPEEWIHGAAVVAKQDYSGIVNDNTKDWFVKAAVSQEYADKWRAEVTPMTGKRLMDAQRVTAGYIQLWFDTYGDR | soluble
MNYPMIAGRVFGTPLLVDPVKGAAFLAGLGPRLVNGALELRGLEELAPDRVAEAGRIAPRASVLLDDAGDARREAGRPLYLVEGGVAVIEVTGTLVHRGGWIGQSSGTTSYEGLMAQISAAVADPSVRGIALEIDSYGGEVAGLFDLADAIRAARAVKPVRAFVAEAALSAAYAIASQAERIVLPRTGAVGSIGVLLVHADFSQAMADRGVAVTLIHAGRHKVDGNPYEALPEGVRADLQARVEASRALFAETVAAGRGARLSRQQALATEAQVLDGAAAVAAGLADEVSDLRRAFAAFRAELFDPHLTSPRAGTPAAAKETPTMTDETTTGAARGTAAEGSAPPMETAEGSGGGAPAANVAVAEAAELIEIGQQAARLGLAVDVADAMRRGLSAAALRRTVLDGLAARGDGADLVAHAPTAAAGPKESPLLAAARRTAEAQAASRRA | not soluble
MSEKPAESAAAVADSATTTAPQSGKPETALPALIDTQATAETRALYRNLAKLRYKHLLFGHEDSLAYGVHWEGDMDRSDVRDVTGANPAVYGWELGGLELGHTANLDAVNFEKMQHWIKAGYSRGGVITISWHVFNPVSGGNSWDKTPAVHELIPGGARHATLKAYLDTFVAFNEGLADVDAQGNKHYPPIIFRPWHEHNGDWFWWGKGHASEQDYIALWRFTVHYLRDEKKLRNLIYAYSPDRSRIDMANFEAGYLYGYPGDAYVDIIGLDNYWDVGHEANTASADEQKAALTASLKQLVQIARSKGKIAALTETGNNRLTIDNFWTERLLGPISADADASEIAYVMVWRNANLAREKSEQFFAPFPGQATADDFKRFYQSEVVLFEDELPPLYR | soluble
MIKAILIFNNHGKPRLCKFYQHYSEDTQQQIIRETFHLVSKRDENVCNFLEGGLLIGGSDNKLIYRHYATLYFVFCVDSSESELGILDLIQVFVETLDKCFENVCELDLIFHVDKVHNILAEMVMGGMVLETNMNEIVTQIDA | soluble
MGYVGIKIRLTDVAPQAQELFKKESLDVKENKVYLVAATLRPETMYGQTCCFVSPKIDYGVFDAGNGDYFITTERAFKNMSFQNLTPKRGYYKPLFTINGKTLIGSRIDAPYAVNKNLRVLPMETVLATKGTGVVTCVPSDSPDDFVTTRDLANKPEYYGIEKDWVQTDIVPIVHTEKYGDKCAEFLVNDLKIQSPKDSVQLANAKELAYKEGFYNGTMLIGKYKGDKVEDAKPKVKQDLIDEGLAFVYNEPELEHHHHHH | soluble
SLEGQLEAGEPKEGTHPEDPCPGAGAAMEKTPAAAEVPREDGNAEEMPSLQQQITSLHQELGRQQSLWADIHRKLQSHMDALRKQNRELREELRGLQRQQWEAGKKPAASPHAGRESHTLALEPAFGKISPLSADEETTPKYAGRKSQSATLLGQRWSSNHLAPPKPMSLKTERINSGKTPPQEDREKSPPGRRQDRSPAPTGRPTPGAERREVSEDGKIMHPSSRSPQNSGGRKSPVQASQATTLQEQTAAARGADRSSSVLGSSEGGFLSRVQADEFASSSPDSAERQNLPVNPPSSLEIAQAMDTKMKKEEVQEEKRHPKGKADDCRRSGFPSEFPGALHAAPSRQDMGP | soluble
MNPKIVFFDIDDTLYRKYTDTLRPSVKTAVAALRGKGILTALATGRSLATIPEKVRDMMAEAGMDAVVTINGQFALLHGKTVREVPMDAGLMGRVCAHLDGLGMDYAFVGGEGIAVSALSECVCRALKHIASDFFADKDYFSSKPVYQMLVFAEENEMPL | not soluble
MGSDKIHHHHHHAMFPERYVSEESAARADTINFRLASAGEAKRLIAAKDSYTANWSPFDIAARLENPEGKREDLVSLAVREVREWTAEEAQQIEQIRKNLNDTIRKYGYRIPFPKEIVLVKTTMKDEGGAGGYTRSNWIALTDATFQRGTEASHTRLLVHETFHILTRLNPGFKKKLYRAIDFNILPKEIEFPEDIRKSRISNPDVSRCDSYATFTIDGKPQNCTMIIYTNRPYTTGKFYQYINVGLIPLDESFKPLRESGKTVIYPLQKATDFFDKVGRNTGYVIDPEEVLADNFAIALLNTPNVHTPELQKKVQELLK | not soluble
MAHHHHHHMHLLSFLSFIIWFIHCTAKRHEYSIKKYFLNSHNFCKIKPDPFRKDTLKKRLYSSDGIKDEIIIGTRDSPLALKQSEKVRKKIMSYFKKMNKNINVTFKYIKTTGDNILDSKSVGLYGGKGIFTKELDEQLINGNVDLCVHSLKDVPILLPNNIELSCFLKRDTINDAFLSIKYKSINDMNTVKSVSKTEDIHHINKKDSDHNNDTLCTIGTSSLRRRSQIKNRYKNIYVNNIRGNINTRIEKLYNGEVDALIIAMCGIERLIKKANLKHLLKNKEQKNICQPFLLKCNNKKCIDLCHVNIQKLNKNLIYPALGQGIIAVTSHKKNYFISSLLKNINNKKSEMMAQIERSFLYHIDGNCMMPIGGYTNMRNEDIYLHVIINDIHGYNKYQVTQKDTLYNYKEIGPNAAIKMKEIIGTEQFNKIKAEAELHLLNNK | not soluble
MSNDQIWDLLGHQIQIELDTGDVRRQESTTGHLMTRDPVSQSLLIAKIEENSTSIKSIEWIPSCSVKSIRKLKNTENPEIHVAIEKYFENDGIEGGSSGAEDSEEDIKKRAHRVVNYLKSHHLDVVEKPNGTYIIAGTVRFERPYHNANLYCDIPIVLKRILKLVEEI | not soluble
GMMQKPITEIIIVGGGTAGWITAGLLAAEHNVDKGVLAHSPKLNITLIESPDVATIGVGEGTWPSMRSTLSKIGIDENDFIRQCDASFKQGSRFINWCKDPQSNVADSYLHPFSLPHGHQELDLCPYWLPHAEQVSFAEAVCSQQVLTQLGLAPKSIVTAQYHFQNNYGYHLNAAKFSQLLTEHCTQKLGVTHIRDHVSQIINNQHGDIEKLITKQNGEISGQLFIDCTGAKSLLLGEHLQVPFLSQKSVLFNDRALAIQVPYSDANSPIASCTHSTAQPNGWIWDIGLPTRKGVGYVYSSSHTNDIDAQKTLFNYLGVDGAAADKLEPRQLAINPGYRAKCWQNNCIAIGMAAGFIEPLEASALALIEWTASTLAQQLPPNRMVMDTISARVNERYQQHWQQIIDFLKLHYVISQRQEDRYWRDHRESNSIPDSLQAMLELWRYQTPSQQDISYKEALFPAASFQYVLYGMSFNTQLPTHVKPSMQQLAQRLFNDNQQRTQALSKNLPTNRELLDKVAQYGFPKL | soluble
DERGEVVDGDKLIGALAMHLKNSHTLEKPLAVATVMSNLALEEFLAKAKIKLLRAGVGDKYVLEMMQKEGANFGGEQSGHLIFSDFAKTGDGLVSALQTMAFVLRSGERASRALNIFDLY | not soluble
MASMTGGQQMGRDLQVTLYGTIKAGVEVSRVKDAGTYKAQGGKSKTATQIADFGSKIGFKGQEDLGNGMKAIWQLEQKASIAGTNSGWGNRQSFIGLKGGFGTVRAGNLNTVLKDSGDNVNAWESGSNTEDVLGLGTIGRVESREISVRYDSPVFAGFSGSVQYVPRDNANDVDKYKHTKSSRESYHAGLKYENAGFFGQYAGSFAKYADLNTDAERVAVNTANAHPVKDYQVHRVVAGYDANDLYVSVAGQYEAAKNNEVGSIKGKKHEQTQVAATAAYRFGNVTPRVSYAHGFKAKVNGVKDANYQYDQVIVGADYDFSKRTSALVSAGWLKQGKGAGKVEQTASMVGLRHKF | soluble
MGSDKIHHHHHHMDLNALTLLVDILDAGNLSKAAQRLKMSRANVSYRLNQLEKSIGLQLVRRTTRRIEPTEIGLRLYEHGRRIQSELFAAREAVTTLGQDLQGRVRLSVPSGYGQLVMSNWLIAFKRLYPGIVLDVVFENRIEDLMRDEVDIAVRVMSEPPQNLVARDMGAVRYVACASPGFAATHGMPTELGQLFDAPVITSTVVGRQLRVAAYLGDERHEVLLEPTLISENFLFLRQAILAGLGVGIVPDYVVHDDVRRGAVVTTLDAYRLSIFGTHMYMLYMPNRHHTRATSTFIDFMLEEARNAGRGG | not soluble
GMECRPLCIDDLELVCRHREAMFREAGRDALTLAAMQDPFRDWLLPRLADGSYFGWVMEEGGAPLAGIGLMVIEWPPHPSHPLQDKRGYILNLYVDPSHRERGIGQALMNRAEAEFAERGIAFAVLHATEMGQPLYARMGWSPTTEMSKPIAG | soluble
DNNRWIPIKPGTDSALVLGMIQWIIENQRYNKTFLAQPGANAMKRAGTAHWCNATHLVISDEQHPRNGTFLRASDLNLPFEGEALSDSDPYVIVEEQSGQFGVHTQTEEATLFVDKTVSLASGKVRVKSSLQRLKEEAFKYSLAFYSQQCEIPVEQIAELAKRFTSCGTKAVVDTHGGNMHTNGFYNSFTIMMLNALIGNINMKGGAMAKAGGYPTSAAGPRYDFTKFAGKVGPKGVFLSRSKFPYHKTSEYKRRVEAGKSPYPTRAPWYPFAAPLLTEHLSAAIDGYPYRVKAWINHMANPMYGVPGLKTLLEDKLKDPKQLGLIVSVDAFINETTALSDYIVPDTVTYESWGMATPWHDVPVKTITARWPIVEARTEKTADGRSICLENFLIDVAKKMQLGGFGDNAIQDAQGNWHALHSAEDFYLRSAANLAYVKGGVPEVSAEDIAWSGLERLMPAMQSTLTADEMKRVAFIFARGGRFENATEAYQGEQMKHKWTRPVAIWNERVGSARNTMTGDFYTGCPTWHPQKLADGTPMEEQFPSSEWPFSLTNFKSNIHSAVSNLSPRLNSIKGVNPVYIHPIDAERAGIKTGDEFVIETPSASTKALAMIVSGIRPGTLGFEHGFGHTELGQRSHWIGDKQQPVKTRSQDGVNINDIGLIDPTREGKGVLLDWVVGAAARQSLPAKIRKA | not soluble
PDQCKPPQVTCRSATCAQVNWEVPLSNGTDVTEYRLEWGGVEGSMQICYCGPGLSYEIKGLSPATTYYCRVQALSVVGAGPFSEVVACVTPPS | soluble
